Consider one molecule from patent publication US20230074793A1 (Xencor, published 2023).

In this test the target is PD1 (programmed cell death protein 1) (human, UniProt Q15116 25-288). Description: cell-based or functional assay.
Sequence of PD1 (programmed cell death protein 1) (Q15116 25-288): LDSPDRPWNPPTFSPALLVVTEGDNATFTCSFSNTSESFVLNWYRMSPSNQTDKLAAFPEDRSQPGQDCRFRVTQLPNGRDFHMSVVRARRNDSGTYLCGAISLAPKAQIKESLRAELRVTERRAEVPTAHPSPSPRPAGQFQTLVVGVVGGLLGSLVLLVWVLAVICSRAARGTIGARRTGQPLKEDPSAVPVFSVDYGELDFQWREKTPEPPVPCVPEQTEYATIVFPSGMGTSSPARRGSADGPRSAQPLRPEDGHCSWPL

B1: XmAb®20717 (bispecific antibody, human IgG1, kappa)
heavy: not shown
scFv: EIVLTQSPATLSASPGERVTLTCRASQSVGNDVAWYQQKPGQAPRLLINYASHRYTGVPDRFTGSGYGTEFTLTISSVQSEDFGVYYCQQDFSSPRTFGGGTKVEIKGKPGSGKPGSGKPGSGKPGSEVQLVESGGGLVKPGGSLRLSCVASGFTFSNYWMNWVRQAPGKGLEWVAEIRLYSNNYATHYAESVKGRFTISRDDSKSTLYLQMNNLKTEDTGVYYCTRYYGNYGGYFDVWGRGTLVTVSSEPKSSDKTHTCPPCPAPPVAGPSVFLFPPKPKDTLMISRTPEVTCVVVDVKHEDPEVKFNWYVDGVEVHNAKTKPREEQYNSTYRVVSVLTVLHQDWLNGKEYKCKVSNKALPAPIEKTISKAKGQPREPQVYTLPPSREQMTKNQVKLTCLVKGFYPSDIAVEWESNGQPENNYKTTPPVLDSDGSFFLYSKLTVDKSRWQQGNVFSCSVLHEALHSHYTQKSLSLSPGK
light: not shown
In the case of B1, the “IL-2 secretion (ELISA of culture supernatants) from SEB-stimulated human PBMC treated 24 hours, versus anti-RSV isotype-control bivalent antibody XENP15074” value came out at 4.1 fold; the “IL-2 secretion (ELISA) from SEB-stimulated human PBMC, versus a mixture of the monovalent component antibodies XENP20111 (anti-PD1 scFv-Fc) and XENP20059 (anti-CTLA4 Fab-Fc)” value is 1.6 fold; the “IL-2 secretion (ELISA) from SEB-stimulated human PBMC, versus the bivalent anti-PD1 antibody XENP16432” value was 1.5 fold.
